Measured values taken from paper PMC11784077.

Key:
Assay in all cases: non-reducing gel electrophoresis with western blot (trimerization assay); BmN cells expressing GP64 or CARC mutants harvested, lysed in PBS (pH 7.4), separated on 10% nonreducing polyacrylamide gel, blotted with anti-GP64 (AcV5)
[1] = biological target: BmNPV GP64 (wild type, signal peptide retained) (Bombyx mori nucleopolyhedrovirus (BmNPV)) (UniProt P41722)
[2] = biological target: BmNPV GP64 F235A (CARC5 mutant) (Bombyx mori nucleopolyhedrovirus (BmNPV)) (UniProt P41722)
[3] = biological target: BmNPV GP64 W154A (CARC2 mutant) (Bombyx mori nucleopolyhedrovirus (BmNPV)) (UniProt P41722)
[4] = biological target: BmNPV GP64 W178A (CARC3 mutant) (Bombyx mori nucleopolyhedrovirus (BmNPV)) (UniProt P41722)
[5] = biological target: BmNPV GP64 W299A (CARC6 mutant) (Bombyx mori nucleopolyhedrovirus (BmNPV)) (UniProt P41722)
[6] = biological target: BmNPV GP64 Y49A (CARC1 mutant) (Bombyx mori nucleopolyhedrovirus (BmNPV)) (UniProt P41722)
[7] = biological target: BmNPV GP64 Y188A (CARC4 mutant) (Bombyx mori nucleopolyhedrovirus (BmNPV)) (UniProt P41722)

BmNPV GP64 (wild type, signal peptide retained) (from UniProt P41722 1-37) (natural protein)
stoichiometry N [1]: 3

BmNPV GP64 F235A (CARC5 mutant) (from UniProt P41722 1-37) (natural protein)
stoichiometry N [2]: 3

BmNPV GP64 W154A (CARC2 mutant) (from UniProt P41722 1-37) (natural protein)
stoichiometry N [3]: 3

BmNPV GP64 W178A (CARC3 mutant) (from UniProt P41722 1-37) (natural protein)
stoichiometry N [4]: 3

BmNPV GP64 W299A (CARC6 mutant) (from UniProt P41722 1-37) (natural protein)
stoichiometry N [5]: 3

BmNPV GP64 Y49A (CARC1 mutant) (from UniProt P41722 1-37) (natural protein)
stoichiometry N [6]: 3

BmNPV GP64 Y188A (CARC4 mutant) (from UniProt P41722 1-37) (natural protein)
stoichiometry N [7]: 3
